Reference: US20170029474A1
Like-named read-outs stand apart in the source and are kept apart here.

Key:
[1] = molecular target: Recombinant HB-EGF (UniProt Q99075); assay: cell-based or functional assay
[2] = molecular target: C-terminal His-tagged HB-EGF lacking the heparin-binding domain (UniProt Q99075); assay: SPR, Biacore T200, His-tagged HB-EGF captured on NTA chip
[3] = molecular target: Recombinant HB-EGF (UniProt Q99075); assay: cell-based or functional assay; remark: listed apart in the source

Chain of Recombinant HB-EGF (Q99075 63-148 limits assumed): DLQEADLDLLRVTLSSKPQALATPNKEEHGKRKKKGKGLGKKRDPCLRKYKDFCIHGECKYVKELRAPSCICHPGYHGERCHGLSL
Chain of C-terminal His-tagged HB-EGF lacking the heparin-binding domain (Q99075 other isoform, or with tags, fused parts or gaps limits assumed): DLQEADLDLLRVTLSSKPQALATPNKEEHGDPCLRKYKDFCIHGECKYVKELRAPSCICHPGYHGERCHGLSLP

| Substance | DER cell assay ID50 [1] | DER cell assay Relative values (relative to CRM197) [1] | Relative values (KA, against CRM197) (relative to CRM197) [2] | DER cell assay ID50 [3] | ID50 [nM], HB-EGF-dependent growth of DER cells [3] |
| --- | --- | --- | --- | --- | --- |
| CRM197 (from UniProt P00587 26-560) | 1.02 nM | 1 | 1 | 1.2 nM | 1.2 nM |
| MBP-R (D507N) (from UniProt P00587 405-560) | – | – | – | – | 4.5 nM |
| MBP-R (H520K) (from UniProt P00587 405-560) | – | – | – | – | 6 nM |
| MBP-R (V468T) (from UniProt P00587 405-560) | – | – | – | – | 6.2 nM |
